# Results published in the supplement of paper PMC7877785.
# ± gives the uncertainty stated by the source.
# Experiment: self-splicing fitness, log relative to wild type (ln ratio); higher = more splicing; Tetrahymena group I intron in knt gene, E. coli kanamycin selection, DiMSum; sequences stand for … in CUCUCU…GGAGGGAAAAGUUAUCAGGCAUGCACCUGGUAGCUAGUCUUUAAACCAAUAGAUUGCAUCGGUUUAAAAGGCAAGACCGUCAAAUUGCGGGAAAGGGGUCAACAGCCGUUCAGUACCAAGUCUCAGGGGAAACUUUGAGAUGGCCUUGCAAAGGGUAUGGUAAUAAGCUGACGGACAUGGUCCUAACCACGCAGCCAAGUCCUAAGUCAACAGAUCUUCUGUUGAUAUGGAUGCAGUUCACAGACUAAAUGUCGGUCGGGGAAGAUGUAUUCUUCUCAUAAGAUAUAGUCGGACCUCUCCUUAAUGGGAGCUAGCGGAUGAAGUGAUGCAACACUGGAGCCGCUGGGAACUAAUUUGUAUGCGAAAGUAUAUUGAUUAGUUUUGGAGUACUCGUGGUCG
# Summary of the method: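 Six replicate transformations of E. coli BL21(DE3) with a pET-22b(+) library were grown overnight at 37°C or 30°C. The library randomised all eight P1ex-region intron nucleotides, the intron lying in the knt kanamycin-resistance gene, and plates were LB agar with or without 25 μg/mL kanamycin plus 100 μg/mL carbenicillin, 50 μM IPTG and 0.2% rhamnose. Pooled colonies were amplicon-sequenced on an Illumina HiSeq 2500, and fitness is the DiMSum error-weighted combination of wild-type-normalised replicate fold changes, kanamycin versus none.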
Sequence,self-splicing fitness (ln) (30 °C),self-splicing fitness (ln) (37 °C)
UUACAGCAAUAUUACGUCAG,-0.769 ± 0.067,-0.337 ± 0.09
UUACAGCAAUAUUACGUCCG,-1.53 ± 0.089,-0.482 ± 0.14
UUACAGCAAUAUUACGUCUC,-2.98 ± 0.28,-2.3 ± 0.22
UUACAGCAAUAUUACGUUCG,-0.549 ± 0.061,-0.234 ± 0.091
UUACAGCAAUAUUACGUUUU,-3.4 ± 0.11,-0.802 ± 0.092
UUAGAGCAAUAUUACGAGUA,-3.31 ± 0.29,-2.1 ± 0.19
UUAGAGCAAUAUUACGAUCC,-2.97 ± 0.41,–
UUAGAGCAAUAUUACGCACA,-0.745 ± 0.08,-0.314 ± 0.11
UUAGAGCAAUAUUACGCACU,-1.24 ± 0.23,-1.78 ± 0.44
UUAGAGCAAUAUUACGCCAA,-0.503 ± 0.16,-0.0692 ± 0.2
UUAGAGCAAUAUUACGCCGG,-0.922 ± 0.19,0.69 ± 0.36
UUAGAGCAAUAUUACGCGUG,-0.924 ± 0.086,0.00533 ± 0.11
UUAGAGCAAUAUUACGCGUU,-2.85 ± 0.17,-1.62 ± 0.17
UUAGAGCAAUAUUACGCUUA,-0.675 ± 0.099,-0.447 ± 0.12
UUAGAGCAAUAUUACGGACG,-1.73 ± 0.15,-0.509 ± 0.29
UUAGAGCAAUAUUACGGAGA,-0.579 ± 0.13,-0.654 ± 0.23
UUAGAGCAAUAUUACGGAGU,-4.12 ± 0.39,-2.9 ± 0.32
UUAGAGCAAUAUUACGGCGA,0.109 ± 0.063,-0.0898 ± 0.074
UUAGAGCAAUAUUACGGCGC,-2.79 ± 0.24,-0.914 ± 0.25
UUAGAGCAAUAUUACGGGCG,-2.23 ± 0.14,-1.13 ± 0.17
UUAGAGCAAUAUUACGGGGG,-3.04 ± 0.31,-1.79 ± 0.36

Sequence,self-splicing fitness (ln) (30 °C),self-splicing fitness (ln) (37 °C)
UUAGAGCAAUAUUACGGGGU,-2.83 ± 0.3,-2.06 ± 0.46
UUAGAGCAAUAUUACGGGUG,-3.1 ± 0.33,-0.89 ± 0.2
UUAGAGCAAUAUUACGGUAU,-3.84 ± 0.28,-1.36 ± 0.19
UUAGAGCAAUAUUACGGUCG,-1.64 ± 0.19,-0.691 ± 0.31
UUAGAGCAAUAUUACGUAGU,-1.3 ± 0.21,-3.47 ± 0.42
UUAGAGCAAUAUUACGUCCA,-1.31 ± 0.22,-1.71 ± 0.37
UUAGAGCAAUAUUACGUCUC,-3.56 ± 0.25,-2.82 ± 0.34
UUAGAGCAAUAUUACGUCUU,-1.62 ± 0.097,-0.85 ± 0.13
UUAGAGCAAUAUUACGUUCG,-1.22 ± 0.1,-0.767 ± 0.15
UUAUAGCAAUAUUACGAACA,-1.51 ± 0.19,-0.83 ± 0.17
UUAUAGCAAUAUUACGAAUG,-2.43 ± 0.16,-0.727 ± 0.17
UUAUAGCAAUAUUACGACCG,-0.514 ± 0.16,0.446 ± 0.22
UUAUAGCAAUAUUACGAUAA,-0.51 ± 0.11,-0.0656 ± 0.12
UUAUAGCAAUAUUACGCAAG,-1.35 ± 0.16,-1.89 ± 0.19
UUAUAGCAAUAUUACGCACA,-0.698 ± 0.085,0.287 ± 0.084
UUAUAGCAAUAUUACGCCAA,–,-0.44 ± 0.25
UUAUAGCAAUAUUACGCCUU,-2.91 ± 0.26,-0.144 ± 0.2
UUAUAGCAAUAUUACGCGGC,-2.42 ± 0.49,-2.4 ± 0.37
UUAUAGCAAUAUUACGCUAA,-2.61 ± 0.24,-2.34 ± 0.19
UUAUAGCAAUAUUACGCUCU,-2.68 ± 0.37,-0.705 ± 0.46
UUAUAGCAAUAUUACGGACC,-3.38 ± 0.47,-1.41 ± 0.21
